Experimental data reported in paper PMC4448153.

molecular target: T1, RamB-His (Corynebacterium glutamicum ATCC 13032?) (UniProt Q8NTD8); assay: EMSA; details: EMSA: 100 mM Tris/HCl pH 7.5, 20% glycerol, 100 mM KCl, 20 mM MgCl2, 1 mM EDTA, 30 min room temperature, DNA 5-61 nM; pull-down bead equilibration: 20 mM …
T1 sequence: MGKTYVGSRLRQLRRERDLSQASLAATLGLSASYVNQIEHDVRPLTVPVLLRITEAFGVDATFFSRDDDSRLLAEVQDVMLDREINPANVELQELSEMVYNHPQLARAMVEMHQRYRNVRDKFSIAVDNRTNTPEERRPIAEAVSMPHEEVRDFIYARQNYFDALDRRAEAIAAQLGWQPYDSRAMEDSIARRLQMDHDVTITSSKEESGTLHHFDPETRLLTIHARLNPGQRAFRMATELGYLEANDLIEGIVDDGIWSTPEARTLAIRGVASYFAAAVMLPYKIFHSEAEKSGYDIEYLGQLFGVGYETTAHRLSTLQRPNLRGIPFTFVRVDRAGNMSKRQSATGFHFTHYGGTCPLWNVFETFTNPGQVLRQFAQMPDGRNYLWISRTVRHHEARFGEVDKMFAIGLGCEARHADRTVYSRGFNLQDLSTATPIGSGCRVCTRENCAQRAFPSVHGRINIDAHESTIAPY

Row | Sequence | binding
1 | CCCGATGTGGGTAGTGGCAGAATTTGCCGAACGATAGCCCAGAGTTCATAAGTTGTTAACCAAATTAGCCTGAGTTAGTCATTTCAAGGTCTTAGGTTTTTAAGTCGTGAGCAATCCGGAGGGAAACCG (double strand) [RcFc] | binds
2 | CGTCTAGATAAGACCTTGAAATGACTAACTCAGGCTAATTTGGTTAACAACTTATGAACTCTGGGCTATCGTTCGGCAAATTCTGCCACTACCCACATCTCACTCGTAACATTTGGAGACTCTAATCACAAAAATCGGCAATTTTCGACCCCTGCGGAACGAAAATCACCGATTCTTATTATTCTCACAGGTTTTTAGCAAGTCTCTTTTTTACTCGAGGGG (double strand) [RF4] | binds more weakly
3 | CGTCTAGATGCGGACTGCTGGGAAGATGCACCTTCAGCAACGAGCTGACCGGTAACACCGGAAAGGCCCTCAATGGATGCAGCATCGGAAGAACCGGTGGAAGCTGCAGATGAGGAGGTGGAATCAGACTCATTGGAGTCGGAGCAAGCTACAAGAGCGAAGGAGCCTGCAGTAACTGCGCCCACAAGGGCGATGGAGCGCTTAAGAGTGAGGTTCACGGGGAAGCCTTTCCGGTTTAAGTGAAGACATCGTCTGAGCAGATCCTGTAGGCGGGCCTCGAGGGG (double strand) [R3F0] | no binding
